According to PMC3958483, “Fine Specificity and Molecular Competition in SLAM Family Receptor Signalling” (PLoS ONE, 2014):

T1: EAT-2 (Homo sapiens, UniProt O14796)
T1 sequence (O14796 1-132): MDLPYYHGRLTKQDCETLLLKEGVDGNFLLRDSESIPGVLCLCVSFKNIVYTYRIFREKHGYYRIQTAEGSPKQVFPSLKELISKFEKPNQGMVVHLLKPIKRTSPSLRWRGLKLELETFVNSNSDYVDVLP

B1: EAT-2: small SH2 domain containing adapter protein (protein)
chain: T1 sequence (O14796 1-132)
modifications: left off: His tag, end not stated, state not stated
notes: small SH2 domain containing adapter protein
B2: c-Src Tyrosine Kinase (CSK): SH2 domain containing protein pulled down by CD244 ITSM1 (protein)
chain: MSAIQAAWPSGTECIAKYNFHGTAEQDLPFCKGDVLTIVAVTKDPNWYKAKNKVGREGIIPANYVQKREGVKAGTKLSLMPWFHGKITREQAERLLYPPETGLFLVRESTNYPGDYTLCVSCDGKVEHYRIMYHASKLSIDEEVYFENLMQLVEHYTSDADGLCTRLIKPKVMEGTVAAQDEFYRSGWALNMKELKLLQTIGKGEFGDVMLGDYRGNKVAVKCIKNDATAQAFLAEASVMTQLRHSNLVQLLGVIVEEKGGLYIVTEYMAKGSLVDYLRSRGRSVLGGDCLLKFSLDVCEAMEYLEGNNFVHRDLAARNVLVSEDNVAKVSDFGLTKEASSTQDTGKLPVKWTAPEALREKKFSTKSDVWSFGILLWEIYSFGRVPYPRIPLKDVVPRVEKGYKMDAPDGCPPAVYEVMKNCWHLDAAMRPSFLQLREQLEHIKTHELHL
B3: SAP: small SH2 domain containing adapter protein (protein, UniProt O60880 1-128, looked up)
SH2 domain-containing protein …: MDAVAVYHGKISRETGEKLLLATGLDGSYLLRDSESVPGVYCLCVLYHGYIYTYRVSQTETGSWSAETAPGVHKRYFRKIKNLISAFQKPDQGIVIPLQYPVEKKSSARSTQGTTGIREDPDVCLKAP
B4: SHIP-1: SH2 domain containing phosphatase (protein)
chain: MVPCWNHGNITRSKAEELLSRTGKDGSFLVRASESISRAYALCVLYRNCVYTYRILPNEDDKFTVQASEGVSMRFFTKLDQLIEFYKKENMGLVTHLQYPVPLEEEDTGDDPEEDTVESVVSPPELPPRNIPLTASSCEAKEVPFSNENPRATETSRPSLSETLFQRLQSMDTSGLPEEHLKAIQDYLSTQLAQDSEFVKTGSSSLPHLKKLTTLLCKELYGEVIRTLPSLESLQRLFDQQLSPGLRPRPQVPGEANPINMVSKLSQLTSLLSSIEDKVKALLHEGPESPHRPSLIPPVTFEVKAESLGIPQKMQLKVDVESGKLIIKKSKDGSEDKFYSHKKILQLIKSQKFLNKLVILVETEKEKILRKEYVFADSKKREGFCQLLQQMKNKHSEQPEPDMITIFIGTWNMGNAPPPKKITSWFLSKGQGKTRDDSADYIPHDIYVIGTQEDPLSEKEWLEILKHSLQEITSVTFKTVAIHTLWNIRIVVLAKPEHENRISHICTDNVKTGIANTLGNKGAVGVSFMFNGTSLGFVNSHLTSGSEKKLRRNQNYMNILRFLALGDKKLSPFNITHRFTHLFWFGDLNYRVDLPTWEAETIIQKIKQQQYADLLSHDQLLTERREQKVFLHFEEEEITFAPTYRFERLTRDKYAYTKQKATGMKYNLPSWCDRVLWKSYPLVHVVCQSYGSTSDIMTSDHSPVFATFEAGVTSQFVSKNGPGTVDSQGQIEFLRCYATLKTKSQTKFYLEFHSSCLESFVKSQEGENEEGSEGELVVKFGETLPKLKPIISDPEYLLDQHILISIKSSDSDESYGEGCIALRLEATETQLPIYTPLTHHGELTGHFQGEIKLQTSQGKTREKLYDFVKTERDESSGPKTLKSLTSHDPMKQWEVTSRAPPCSGSSITEIINPNYMGVGPFGPPMPLHVKQTLSPDQQPTAWSYDQPPKDSPLGPCRGESPPTPPGQPPISPKKFLPSTANRGLPPRTQESRPSDLGKNAGDTLPQEDLPLTKPEMFENPLYGSLSSFPKPAPRKDQESPKMPRKEPPPCPEPGILSPSIVLTKAQEADRGEGPGKQVPAPRLRSFTCSSSAEGRAAGGDKSQGKPKTPVSSQAPVPAKRPIKPSRSEINQQTPPTPTPRPPLPVKSPAVLHLQHSKGRDYRDNTELPHHGKHRPEEGPPGPLGRTAMQ
B5: SHIP-2: SH2 domain containing phosphatase (protein)
chain: MASACGAPGPGGALGSQAPSWYHRDLSRAAAEELLARAGRDGSFLVRDSESVAGAFALCVLYQKHVHTYRILPDGEDFLAVQTSQGVPVRRFQTLGELIGLYAQPNQGLVCALLLPVEGEREPDPPDDRDASDGEDEKPPLPPRSGSTSISAPTGPSSPLPAPETPTAPAAESAPNGLSTVSHDYLKGSYGLDLEAVRGGASHLPHLTRTLATSCRRLHSEVDKVLSGLEILSKVFDQQSSPMVTRLLQQQNLPQTGEQELESLVLKLSVLKDFLSGIQKKALKALQDMSSTAPPAPQPSTRKAKTIPVQAFEVKLDVTLGDLTKIGKSQKFTLSVDVEGGRLVLLRRQRDSQEDWTTFTHDRIRQLIKSQRVQNKLGVVFEKEKDRTQRKDFIFVSARKREAFCQLLQLMKNKHSKQDEPDMISVFIGTWNMGSVPPPKNVTSWFTSKGLGKTLDEVTVTIPHDIYVFGTQENSVGDREWLDLLRGGLKELTDLDYRPIAMQSLWNIKVAVLVKPEHENRISHVSTSSVKTGIANTLGNKGAVGVSFMFNGTSFGFVNCHLTSGNEKTARRNQNYLDILRLLSLGDRQLNAFDISLRFTHLFWFGDLNYRLDMDIQEILNYISRKEFEPLLRVDQLNLEREKHKVFLRFSEEEISFPPTYRYERGSRDTYAWHKQKPTGVRTNVPSWCDRILWKSYPETHIICNSYGCTDDIVTSDHSPVFGTFEVGVTSQFISKKGLSKTSDQAYIEFESIEAIVKTASRTKFFIEFYSTCLEEYKKSFENDAQSSDNINFLKVQWSSRQLPTLKPILADIEYLQDQHLLLTVKSMDGYESYGECVVALKSMIGSTAQQFLTFLSHRGEETGNIRGSMKVRVPTERLGTRERLYEWISIDKDEAGAKSKAPSVSRGSQEPRSGSRKPAFTEASCPLSRLFEEPEKPPPTGRPPAPPRAAPREEPLTPRLKPEGAPEPEGVAAPPPKNSFNNPAYYVLEGVPHQLLPPEPPSPARAPVPSATKNKVAITVPAPQLGHHRHPRVGEGSSSDEESGGTLPPPDFPPPPLPDSAIFLPPSLDPLPGPVVRGRGGAEARGPPPPKAHPRPPLPPGPSPASTFLGEVASGDDRSCSVLQMAKTLSEVDYAPAGPARSALLPGPLELQPPRGLPSDYGRPLSFPPPRIRESIQEDLAEEAPCLQGGRASGLGEAGMSAWLRAIGLERYEEGLVHNGWDDLEFLSDITEEDLEEAGVQDPAHKRLLLDTLQLSK

Molecular target: T1, EAT-2
Assay: EAT-2 expression in NK92 after RNA interference
Format: cell-based
Conditions: shRNA, NK92 cells; from 0.44 μM
Procedure: Lentiviral constructs expressing gene-specific shRNAs in vector pLKO.1 were obtained from Open Biosystems. […] As a non-targeting control, the hairpin sequence 5′-[…] was expressed in pLKO.1. Lentiviral particles were produced through polyethylenimine (PEI-Sigma) co-transfection of 293 T cells with pLKO.1 along with packaging vectors pMD2.G and pSPAX2 (Addgene; Didier Trono Laboratory). Virus was produced in RPMI 1640/10% heat-inactivated FCS for 48–72 hours. Viral supernatants were collected and NK92 cells were transduced twice overnight in the presence of 1000 U/ml IL-2. Cells with stable shRNA expression were selected using 3 μg/ml puromycin (Invitrogen) for 72 hours prior to use in functional assays.
For quantitation of protein expression, NK92 cell lysates were prepared using buffer (150 mM NaCl, 20 mM Tris-HCl pH 7.4, 10% glycerol, 2 mM EDTA, 10 mM NaF, 1 mM PMSF) containing 0.5% Triton X-100. Lysates were resolved by SDS-PAGE under reducing conditions using Novex gradient gels and transferred to nitrocellulose membranes for western blotting by standard protocols. […] SHP-2 levels in 10^5 cell equivalents were analysed in a similar manner with recombinant SHP-2 N+C as a standard (25, 50 and 100 ng) and anti-SHP-2 (Cell Signaling #3752). […] Quantitation of protein expression was performed using LI-COR Odyssey Sa software version 1.0. […]
In the case of B1, the “intracellular EAT-2 concentration after 50% knockdown” value is reported as “approximately 0.2 μM”.

Tested on: not listed separately
Assay: Pull-down with phosphorylated CD244 ITSM1 from NK cell lysates, LC-MS/MS
Format: binding
Conditions: human NK cell lysates; compared with control phosphopeptide SHIP-1 Y865
Procedure: For pull-down of associated proteins, streptavidin Sepharose (GE Healthcare) was pre-coated with saturating amounts of peptide or EAT-2. NK92 cells (4×10^8) were treated with 500 μM pervanadate for 15 minutes, then lysed in PBS, 1% Triton X-100, 1 mM sodium orthovanadate in the presence of mammalian protease inhibitor solution (Sigma). Lysates were pre-cleared by centrifugation, followed by incubation with streptavidin Sepharose. Peptide or EAT-2-coated streptavidin beads were incubated with NK92 lysates for 2 hours at 4°C with rotation. Beads were washed once with 15 ml ice cold PBS/1% (v/v) Triton X-100. Bound protein was eluted using 100 mM glycine-HCl pH 2.5.
Protein samples were prepared for mass spectrometry as described previously. Briefly, eluted proteins were spun onto the membranes of Vivacon 500 filters (10,000 MWCO – Sartorius). Membranes were washed once with PBS then proteins were denatured with 8 M urea, reduced with 10 mM DTT in 25 mM ammonium bicarbonate buffer, followed by alkylation with 50 mM iodoacetamide. Proteins were then digested overnight with trypsin. Tryptic peptides were then eluted from the membrane and analyzed on an Ultimate 3000 HPLC-coupled Orbitrap XL mass spectrometer. Proteins were identified by liquid chromatography-coupled tandem mass-spectrometry (LC-MS/MS). Raw data files were converted to mzXML format using ReADW (v. 4.2.1) and submitted to the Central Proteomics Facilities Pipeline for database comparison and peptide identification. Searching against the International Protein Index (IPI) human protein sequence database for protein identification, protein and peptide hits were statistically validated by applying a 1% false discovery rate (FDR) by searching against a concatenated target/decoy database. Datasets were searched with variable peptide modifications for phosphotyrosine, phosphoserine, phosphothreonine, oxidation of methionine and deamination.
Protein identification data were exported into ProteinCenter (v3.8.3013 – Thermo Fisher) for filtering and annotation. Results were filtered to remove any proteins with less than 3 unique peptides, less than 10 percent sequence coverage, or median protein probability scores less than 0.5. To establish sample specificity, any protein with at least 10-fold greater sequence coverage in one sample compared with the other was considered to be specific for that sample.
Similarly, differences in specificity of inhibitory SH2 domain containing proteins for ITSMs are relevant to understanding mechanisms of inhibition by ITSMs. We focused on CD244 ITSMs to establish general paradigms.
For B2, the “pull-down by CD244 ITSM1” value was “pulled down by the ITSM peptide”.
With B3 the “pull-down by CD244 ITSM1” value was “identifying SAP and EAT-2”.
For B1, the “pull-down by CD244 ITSM1” value was “identifying SAP and EAT-2”.
For B4, the “pull-down by CD244 ITSM1” value was “pulled down by the ITSM peptide”.
With B5 the “pull-down by CD244 ITSM1” value was “pulled down by the ITSM peptide”.
